Measurements reported in PMC5966431.

Tests used:
Assay in all cases: SEC; Size-exclusion chromatography of the purified His6-tagged recombinant proteins. Column and buffer are not told for these proteins. Dimerization was not detected consistently under the authors' conditions.
[1] = molecular target: Mase04140 (PL17 family alginate lyase, subfamily 2, Alteromonas macleodii) (Alteromonas macleodii)
[2] = molecular target: Pedsa1196 (PL17 family alginate lyase, subfamily 2, Pedobacter saltans) (Pedobacter saltans)
[3] = molecular target: Valg4460 (PL17 family polysaccharide lyase, subfamily 2, Vibrio alginolyticus) (Vibrio alginolyticus)

Question: Which stoichiometry N [1] does the source give for “Mase04140 (PL17 family alginate lyase, subfamily 2, Alteromonas macleodii) (enzyme)” here?
Answer: 2

Question: Which stoichiometry N [2] does the source give for “Pedsa1196 (PL17 family alginate lyase, subfamily 2, Pedobacter saltans) (enzyme)” here?
Answer: 2

Question: “Valg4460 (PL17 family polysaccharide lyase, subfamily 2, Vibrio alginolyticus) (enzyme)” was tested. Which stoichiometry N [3] did it give?
Answer: 2
